This experiment concerns the target integrin α2β1 on platelets (UniProt P17301). Briefly: cell-based or functional assay.

The substance Collagen type I (ligand) had a platelet aggregation of over 90%.
